Test results taken from US20220363769A1 (SORRISO PHARMACEUTICALS, published 2022).
Changes are numbered by the printed parent chain. Numbers in names are those of the source.

B1: ID-A2U (VHH)
VHH: EVQLVESGGGLVQAGGSLRLSCASSISTFSSDAMGWFRQAPGKEREFLAAIGWSGAVTHYSDSVQGRFTISRDNAKNTVYLQMNSLKSEDTGRYYCAEDYDTDVWQYWGQGTQVTVSS
notes: V7R-2E9 with E23A; produced from E. coli
B2: ID-A11U (VHH)
VHH: B1 VHH with A23E, F47W
notes: V7R-2E9 with F47W; produced from E. coli
B3: ID-A16U (VHH)
VHH: B1 VHH with A23E, K87R
notes: V7R-2E9 with K87R; produced from E. coli
B4: ID-A6U (VHH)
VHH: B1 VHH with A23E, F37V
notes: V7R-2E9 with F37V; produced from E. coli
B5: ID-A5U (VHH)
VHH: B1 VHH with A23E, I26G
notes: V7R-2E9 with I26G; produced from E. coli
B6: ID-A15U (VHH)
VHH: B1 VHH with A23E, V79L
notes: V7R-2E9 with V79L; produced from E. coli
B7: ID-A7U (VHH)
VHH: B1 VHH with A23E, E44G, R45L, F47W, L48V, A49S
notes: V7R-2E9 with 44 to 49 EREFLA to GLEWS (so in the source); produced from E. coli
B8: ID-A12U (VHH)
VHH: B1 VHH with A23E, L48V
notes: V7R-2E9 with L48V; produced from E. coli
B9: ID-A13U (VHH)
VHH: B1 VHH with A23E, A49S
notes: V7R-2E9 with A49S; produced from E. coli
B10: ID-A9U (VHH)
VHH: B1 VHH with A23E, E44G
notes: V7R-2E9 with E44G; produced from E. coli
B11: ID-A18U (VHH)
VHH: B1 VHH with A23E, S88T
notes: V7R-2E9 with S88T; produced from E. coli
B12: ID-A8U (VHH)
VHH: B1 VHH with A23E, E44G, R45L, F47W
notes: V7R-2E9 with 44 to 47 EREF to GLEW; produced from E. coli
B13: ID-A14U (VHH)
VHH: B1 VHH with A23E, Q65K
notes: V7R-2E9 with Q65K; produced from E. coli
B14: ID-A19U (VHH)
VHH: B1 VHH with A23E, G92A
notes: V7R-2E9 with G92A; produced from E. coli
B15: ID-A17U (VHH)
VHH: B1 VHH with A23E, S88A
notes: V7R-2E9 with S88A; produced from E. coli
B16: ID-A20U (VHH)
VHH: B1 VHH with A23E, R93V
notes: V7R-2E9 with R93V; produced from E. coli
B17: ID-A10U (VHH)
VHH: B1 VHH with A23E, R45L
notes: V7R-2E9 with R45L; produced from E. coli
B18: ID-A4U (VHH)
VHH: B1 VHH with A23E, S24A
notes: V7R-2E9 with S24A; produced from E. coli
B19: ID-A21U (VHH)
VHH: B1 VHH with A23E, Q113L
notes: V7R-2E9 with Q113L; produced from E. coli
B20: ID-A37U (VHH)
VHH: B1 VHH with A23E, E44G, Q65K, K87R
notes: V7R-2E9 with E44G, Q65K, K87R
B21: ID-A33U (VHH)
VHH: B1 VHH with A23E, E44G, S88A
notes: V7R-2E9 with E44G, S88A
B22: ID-A39U (VHH)
VHH: B1 VHH with A23E, E44G, K87R, S88A
notes: V7R-2E9 with E44G, K87R, S88A
B23: ID-A35U (VHH)
VHH: B1 VHH with A23E, Q65K, S88A
notes: V7R-2E9 with Q65K, S88A
B24: ID-A23U (VHH)
VHH: B1 VHH with A23E, E44G, R45L, F47W, Q65K, K87R, S88A
notes: V7R-2E9 with E44G, R45L, F47W, Q65K, K87R, S88A
B25: ID-A38U (VHH)
VHH: B1 VHH with A23E, E44G, Q65K, S88A
notes: V7R-2E9 with E44G, Q65K, S88A
B26: ID-A26U (VHH)
VHH: B1 VHH with A23E, E44G, R45L, Q65K, K87R, S88A
notes: V7R-2E9 with E44G, R45L, Q65K, K87R, S88A
B27: ID-A29U (VHH)
VHH: B1 VHH with A23E, E44G, R45L, F47W, Q65K, K87R
notes: V7R-2E9 with E44G, R45L, F47W, Q65K, K87R
B28: ID-A28U (VHH)
VHH: B1 VHH with A23E, E44G, R45L, F47W, Q65K, S88A
notes: V7R-2E9 with E44G, R45L, F47W, Q65K, S88A
B29: ID-A24U (VHH)
VHH: B1 VHH with A23E, R45L, F47W, Q65K, K87R, S88A
notes: V7R-2E9 with R45L, F47W, Q65K, K87R, S88A
B30: ID-A25U (VHH)
VHH: B1 VHH with A23E, E44G, F47W, Q65K, K87R, S88A
notes: V7R-2E9 with E44G, F47W, Q65K, K87R, S88A
B31: ID-A34U (VHH)
VHH: B1 VHH with A23E, Q65K, K87R
notes: V7R-2E9 with Q65K, K87R
B32: ID-A32U (VHH)
VHH: B1 VHH with A23E, E44G, K87R
notes: V7R-2E9 with E44G, K87R
B33: ID-A36U (VHH)
VHH: B1 VHH with A23E, K87R, S88A
notes: V7R-2E9 with K87R, S88A
B34: ID-A31U (VHH)
VHH: B1 VHH with A23E, E44G, Q65K
notes: V7R-2E9 with E44G, Q65K
B35: ID-A30U (VHH)
VHH: B1 VHH with A23E, E44G, Q65K, K87R, S88A
notes: V7R-2E9 with E44G, Q65K, K87R, S88A
B36: ID-A27U (VHH)
VHH: B1 VHH with A23E, E44G, R45L, F47W, K87R, S88A
notes: V7R-2E9 with E44G, R45L, F47W, K87R, S88A
B37: V7R-2F6 (VHH)
VHH: B1 VHH with A23E, S27G, A56T
notes: llama ICVD, primary clone, expressed in E. coli TG1; not shown: C-terminal FLAG and 6xHis tags from vector pMEK222
B38: V7R-2E5 (VHH)
VHH: B1 VHH with A14P, A23E
notes: as for B37
B39: V7R-4F6 (VHH)
VHH: B1 VHH with A23E, S30G, L48V, I51T, Q65K, R93T
notes: as for B37
B40: V7R-3B5 (VHH)
VHH: B1 VHH with A14V, A23E
notes: as for B37
B41: V7R-6C12 (VHH)
VHH: B1 VHH with A23E, Q65K, D101V
notes: llama ICVD, primary clone, expressed in E. coli TG1; also called IL-7R-6C12; not shown: C-terminal FLAG and 6xHis tags from vector pMEK222
B42: V7R-2B6 (VHH)
VHH: EVQLVESGGGLVQAGGSLRLSCESSARTFSDDAMGWFRQAAGKEREFLAAINWSGAVTHYGDSVKGRFTISRDNAKNTVYLQMDSLKPEDTAVYYCAEDYDTDVWQHWGQGTQVTVSS
notes: as for B37

Biological target: T1, recombinant human IL-7Rα-His6-Fc (human, UniProt P16871 21-239)
T1 construct: also called hIL-7R; not shown: His6 tag; Fc (captured by anti-human IgG Fc)
T1 chain: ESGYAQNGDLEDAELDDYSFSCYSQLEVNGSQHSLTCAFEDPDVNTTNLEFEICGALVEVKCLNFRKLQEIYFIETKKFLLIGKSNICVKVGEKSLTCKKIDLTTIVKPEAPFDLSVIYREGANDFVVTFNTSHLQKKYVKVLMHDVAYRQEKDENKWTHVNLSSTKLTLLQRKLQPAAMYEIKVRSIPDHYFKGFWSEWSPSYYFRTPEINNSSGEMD
Assay: IL-7/IL-7R neutralisation ELISA; inhibition of IL-7 binding to IL-7R
Method: A 7-point dilution series of the clones was prepared in 1% BSA (at 2× the assay concentration) starting at 300 nM and using a 3.2 dilution factor. […] Block buffer alone was also added to each plate as blank. […] TMB reaction was stopped after 30 minutes. […]

| Binder | EC50 |
| --- | --- |
| B1 | 0.475 nM |
| B2 | 0.175 nM |
| B3 | 0.446 nM |
| B4 | 0.194 nM |
| B5 | 0.49 nM |
| B6 | 0.146 nM |
| B7 | 0.513 nM |
| B8 | 0.179 nM |
| B9 | 0.615 nM |
| B10 | 0.168 nM |
| B11 | 0.214 nM |
| B12 | 0.604 nM |
| B13 | 0.15 nM |
| B14 | 0.188 nM |
| B15 | 0.493 nM |
| B16 | 0.139 nM |
| B17 | 0.529 nM |
| B18 | 0.489 nM |
| B19 | 0.436 nM |

Biological target: T1, recombinant human IL-7Rα-His6-Fc
Assay: IL-7/IL-7Rα-His6-Fc ELISA; inhibition of IL-7 binding to IL-7R

| Binder | EC50 |
| --- | --- |
| B20 | 0.845 nM |
| B21 | 0.429 nM |
| B22 | 0.411 nM |
| B23 | 0.849 nM |
| B24 | 0.854 nM |
| B25 | 0.789 nM |
| B26 | 0.841 nM |
| B27 | 0.476 nM |
| B28 | 0.46 nM |
| B29 | 0.819 nM |
| B30 | 0.835 nM |
| B31 | 0.376 nM |
| B32 | 0.367 nM |
| B33 | 0.797 nM |
| B34 | 0.336 nM |
| B35 | 0.362 nM |
| B36 | 0.395 nM |

Biological target: T1, recombinant human IL-7Rα-His6-Fc
Assay: IL-7/IL-7R neutralising ELISA; inhibition of IL-7 binding to IL-7R
Method: A 7-point dilution series of the clones was prepared in 1% BSA (at 2× the assay concentration) starting at 300 nM and using a 3.2 dilution factor. […] Block buffer alone was also added to each plate as blank. […] TMB reaction was stopped after 30 minutes.
EC₅₀ values were generated in Graphpad prism using the ELISA signal blank corrected A450 data and ‘log(inhibitor) vs. response—Variable slope (four parameters)’ to fit curves and generate EC₅₀.

| Binder | EC50 |
| --- | --- |
| B37 | 0.361 nM |
| B38 | 0.64 nM |
| B39 | 0.259 nM |
| B40 | 0.222 nM |
| B41 | 0.416 nM |
| B42 | 0.264 nM |
